How the values were obtained:
[1] = biological target: CD80 on cynomolgus monkey blood cells (cynomolgus monkey (endogenous in blood cells)); assay: flow cytometry on cells
[2] = biological target: CD86 on cynomolgus monkey blood cells (cynomolgus monkey (endogenous in blood cells)); assay: flow cytometry on cells

With “CTLA4‐Ig recombinant fusion protein (from UniProt P16410 36-161) (Fc fusion)” as the substance, how does the percent free CD80 of predose, Day 14, high dose (3 mg/kg) [1] read?
Its percent free CD80 of predose, Day 14, high dose (3 mg/kg) is 3%.

What about the percent free CD80 of predose, Day 14, middle dose (0.3 mg/kg) [1] of the same substance?
The percent free CD80 of predose, Day 14, middle dose (0.3 mg/kg) was 42%.

And the percent suppression of free CD80 upon administration (all dose groups) [1]?
The percent suppression of free CD80 upon administration (all dose groups) was greater than 90%.

What about the serum CTLA4‐Ig concentration at ∼90% target suppression [1] of the same substance?
Its serum CTLA4‐Ig concentration at ∼90% target suppression is 0.18 µg/mL.

And the percent free CD86 of predose, 4 h after the low dose (0.03 mg/kg) [2]?
The percent free CD86 of predose, 4 h after the low dose (0.03 mg/kg) was 67%.

And the serum CTLA4‐Ig concentration at ∼90% target suppression [2]?
Its serum CTLA4‐Ig concentration at ∼90% target suppression is 33 µg/mL.

Source: PMC5057311
